Experimental data: US20200172617A1

What was measured:
[1] = biological target: soluble LAG-3 (human) (UniProt P18627); experiment: population PK/PD target-mediated drug disposition model (quasi-equilibrium) fitted to antibody and total soluble LAG-3 concentrations in patient serum; model estimate
[2] = biological target: LAG-3 (as used in the Biacore assay) (UniProt P18627); experiment: Biacore (SPR); format not described
[3] = biological target: LAG-3 (in the in vitro cell-based assays) (UniProt P18627); experiment: in vitro cell-based assays; format not described

B1: LAG525 (antibody, INN chains, looked up, V domains shown)
VH: QVQLVQSGAEVKKPGASVKVSCKASGFTLTNYGMNWVRQARGQRLEWIGWINTDTGEPTYADDFKGRFVFSLDTSVSTAYLQISSLKAEDTAVYYCARNPPYYYGTNNAEAMDYWGQGTTVTVSS
VL: DIQMTQSPSSLSASVGDRVTITCSSSQDISNYLNWYLQKPGQSPQLLIYYTSTLHLGVPSRFSGSGSGTEFTLTISSLQPDDFATYYCQQYYNLPWTFGQGTKVEIK
With B1 the Kd [1] was 1.5 nM, the Kd [2] was 0.1 nM and the Kd [3] was 1.9 to 2.3 nM.
